The Human Domainome abundance scans (Beltran et al. 2025)

B1: Gamma-crystallin D, residues 90 to 170; numbered along this chain, P07320 (parent)
chain: IRLYEREDYRGQMIEFTEDCSCLQDRFRFNEIHSLNVLEGSWVLYELSNYRGRQYLLMPGDYRRYQDWGATNARVGSLRRV

Variants of: B1
Test: abundance fitness (aPCA) (normalised: wild type 0, dead -1); higher = more abundant; growth selection in yeast, the domain comes from the species named
Conditions: Homo sapiens

Abundance fitness: each site, then its substitutions
L35: P -1 | Q -0.01 | R -0.863 | S -0.035 | T -0.034 | V 0.048 | W -0.552 | Y -0.249
N36: A 0.045 | C -0.054 | D -0.051 | E 0.023 | F 0.114 | G -0.087 | H -0.058 | I -0.05 | K -0.023 | M -0.112 | P -1.23 | Q 0.051 | R 0.006 | S 0.135 | T -0.153 | V -0.098 | W 0.076 | Y -0.086
V37: A 0.01 | C -0.126 | D 0.165 | E -1.11 | F 0.159 | G -0.218 | H -0.086 | I 0.091 | K -0.7 | L 0.096 | M -0.338 | P 0.153 | Q -0.306 | S 0.137 | T 0.091 | W -0.895
L38: A -0.066 | C -0.102 | D 0.064 | G 0.016 | H 0.024 | I 0.007 | K -0.141 | M -0.035 | P 0.012 | Q -0.007 | R 0.029 | S -0.065 | T -0.055 | V -0.045 | W 0.153
E39: A 0.074 | C -0.156 | D -0.039 | F -0.262 | G 0.084 | H 0.165 | I -0.03 | K -0.065 | L -0.061 | M -0.054 | P -0.78 | Q -0.084 | R 0.016 | S -0.024 | T 0.059 | W -0.176
G40: A -0.014 | C -0.039 | D 0.011 | E 0.076 | F -0.031 | H 0.132 | I -0.113 | K -0.187 | L -0.143 | M -0.13 | N -0.228 | P -0.077 | Q -0.053 | R -0.142 | S -0.021 | T -0.041 | V 0.025 | Y -0.104
S41: A -0.222 | D -0.007 | E 0.076 | F -0.384 | G 0.064 | H -0.006 | I -0.161 | K 0.045 | L -0.363 | M -0.285 | N -0.175 | P -0.171 | Q 0.022 | R 0.021 | T -0.09 | V -0.138 | W -0.207 | Y -0.078
W42: A -0.554 | C -0.272 | D -1 | E -1.07 | F -0.105 | G -1.1 | H -0.38 | I -0.029 | L -0.201 | M -0.388 | N -0.774 | P -0.923 | Q -0.969 | R -0.994 | S -0.865 | T -0.492 | V 0.114 | Y 0.166
V43: A -0.059 | D -0.017 | E 0.204 | F -0.125 | G -0.026 | H -0.129 | K -0.148 | L -0.1 | M 0.079 | N -0.157 | P -0.844 | R 0.006 | S -0.029 | T -0.113 | W -0.028 | Y -0.229
L44: A 0.006 | C -0.093 | D -0.93 | F -0.021 | G -0.024 | H -0.721 | I 0.048 | N -0.938 | P -1.04 | Q -0.563 | R -1.17 | T -0.03 | V 0.035 | W -0.414 | Y -0.073
Y45: A -0.347 | C -0.273 | D -1.01 | E -1.04 | G -0.441 | H -0.151 | L -0.708 | M -0.401 | N -0.507
